The target in the assay is wild-type rabbit PrP 121–230 (rabbit). Kind of assay: SEC.

wild-type rabbit PrP 121–230 (domain or fragment), sequence (Q95211 119-229 limits assumed): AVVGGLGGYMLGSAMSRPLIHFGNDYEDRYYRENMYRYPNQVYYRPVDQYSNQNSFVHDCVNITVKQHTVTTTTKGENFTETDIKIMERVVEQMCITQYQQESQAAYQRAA

By stoichiometry N is commonly meant the number of molecules, sites or subunits per partner or assembly. In turn, “wild-type rabbit PrP 121–230 (domain or fragment)” displayed a percent octamer after 4 hours of 33% and a stoichiometry N of 8.

For the origin of these results see PMC3651167.
